Reference: patent US20130273029A1 (Novartis, published 2013)
Residue numbers refer to the chain shown, from its start. Where two headings read alike, the source gives them in different places.

B1: MOR12616 (antibody, human IgG1, kappa, V domains shown)
VH: QVQLVQSGAEVKKPGESLKISCKGSGYSFTNSWVAWVRQMPGKGLEWMGIIYPGNSDTIYSPSFQGQVTISADKSISTAYLQWSSLKASDTAMYYCARVHIIQPPSAWSYNAMDVWGQGTLVTVSS
VL: DIQMTQSPSSLSASVGDRVTITCRASQSISTYLNWYQQKPGKAPKLLIFGASNLQSGVPSRFSGSGSGTDFTLTISSLQPEDFATYYCQQSITELFTFGQGTKVEIKR
notes: tested as IgG
B2: MOR12925 (antibody, human IgG1, kappa, V domains shown)
VH: B1 VH with T30S, S32Y, V34I
VL: B1 VL
notes: tested as IgG
B3: MOR14536 (antibody, human IgG1, kappa, V domains shown)
VH: B1 VH with Q1E, T30S, S32Y, V34I, N55Q
VL: B1 VL with F49Y
notes: tested as IgG
B4: MOR14535 (antibody, human IgG1, kappa, V domains shown)
VH: B1 VH with Q1E, N31T, S32T, N55L
VL: B1 VL with F49Y
notes: tested as IgG
B5: MOR13768 (antibody, human IgG1, kappa, V domains shown)
VH: B1 VH with N31S, N55Q
VL: B1 VL
notes: tested as IgG

Key:
[1] = target: T1, Hu HER3: CD33-[Human HER3, residues 20-640]-TAG (human, UniProt P21860 20-640); assay: binding ELISA on human HER3 (WT), IgG titrated (Example 7); fluorescence 435/530 nm
T1 construct: also called hu HER3-Tag; HER3-Tag; not shown: C-terminal TAG (e.g., FLAG TAG)

[2] = target: T2, Cyno HER3: CD33-[Cyno HER3, residues 20-643]-TAG (cynomolgus, UniProt G7PIG5 20-643); assay: SET, IgG vs soluble HER3-Tag
T2 construct: also called cy HER3-Tag; not shown: C-terminal TAG (e.g., FLAG TAG)
Procedure, shortened: (§1)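 Affinity measured by solution equilibrium titration, with read-out moved from classical ELISA to ECL-based detection for sensitivity. Titration data were fitted with customized fitting models.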

[3] = target: T3, Rat HER3: CD33-[Rat HER3, residues 20-643]-TAG (rat, UniProt Q62799 20-643); assay: SET, IgG vs soluble HER3-Tag
T3 construct: also called ra HER3-Tag; not shown: C-terminal TAG (e.g., FLAG TAG)
Procedure, shortened: as §1

[4] = target: T1, Hu HER3: CD33-[Human HER3, residues …; assay: SET, IgG vs soluble HER3-Tag
Procedure, shortened: as §1

[5] = target: T4, Mu HER3: CD33-[Murine HER3, residues 20-643]-TAG (murine, UniProt Q61526 20-643); assay: SET, IgG vs soluble HER3-Tag
T4 construct: also called mu HER3-Tag; not shown: C-terminal TAG (e.g., FLAG TAG)
Procedure, shortened: as §1

[6] = target: T5, Human HER3, endogenous, on human cancer cell lines (SK-Br-3, MCF7, BT-474) (human, UniProt P21860 20-1342); assay: cell-based or functional assay
[7] = target: T5, Human HER3, endogenous, on human cancer …; assay: cell-based or functional assay; remark: listed apart in the source
[8] = target: T6, HER3 D3-4: CD33-[Human HER3, residues 330-643]-TAG (human, UniProt P21860 330-643); assay: ELISA on coated recombinant protein, antibody titrated (Example 7); readout on the sheet is Fluorescence Units
T6 construct: also called D3-4-Tag; isolated domains 3-4; not shown: C-terminal TAG (e.g., FLAG TAG)

[9] = target: T7, HER3 D2: CD33-[Human HER3, residues 185-329]-TAG (human, UniProt P21860 185-329); assay: as above
T7 construct: also called D2-Tag; isolated D2 protein; not shown: C-terminal TAG (e.g., FLAG TAG)

[10] = target: T8, HER3 D4: CD33-[Human HER3, residues 496-643]-TAG (human, UniProt P21860 496-643); assay: as above
T8 construct: also called D4-Tag; isolated domain 4; not shown: C-terminal TAG (e.g., FLAG TAG)

[11] = target: T5, Human HER3, endogenous, on human cancer …; assay: cell-based or functional assay; remark: listed apart in the source
[12] = target: T6, HER3 D3-4: CD33-[Human HER3, residues …; assay: ELISA on coated recombinant protein, antibody titrated (Example 7); readout on the sheet is Fluorescence Units; remark: listed apart in the source
[13] = target: T7, HER3 D2: CD33-[Human HER3, residues …; assay: as above; remark: listed apart in the source
[14] = target: T8, HER3 D4: CD33-[Human HER3, residues …; assay: as above; remark: listed apart in the source
HER3 on B16-F10 cells = target: T9, HER3 on B16-F10 cells (UniProt Q61526 20-1339); assay: FACS titration on B16-F10 cells
T9 construct: whole, on cells

HER3 on JTC12 cells = target: T10, HER3 on JTC12 cells; assay: FACS titration on JTC12 cells
T10 construct: whole, on cells

[15] = target: T5, Human HER3, endogenous, on human cancer …; assay: FACS titration on SK-Br-3 cells
Description: The binding of antibodies to endogenous human antigen expressed on human cancer cells was accessed by FACS. In order to determine antibody EC₅₀ values SK-Br-3 cells were harvested with accutase and diluted to 1×10⁶ cells/mL in FACS buffer (PBS/3% FBS/0.2% NaN₃). 1×10⁵ cells/well were added to each well of a 96-well plate (Nunc) and centrifuged at 210 g for 5 minutes at 4° C. before removing the supernatant. Serial dilutions of test antibodies (diluted in 1:4 dilution steps with FACS buffer) were added to the pelleted cells and incubated for 1 hour on ice. The cells were washed and pelleted three times with 100 μL FACS buffer. PE conjugated goat anti-human IgG (Jackson ImmunoResearch) diluted 1/200 with FACS buffer were added to the cells and incubated on ice for 1 hour. Additional washing steps were performed three times with 100 μL FACS buffer followed by centrifugation steps at 210 g for 5 minutes at 4° C. Finally, cells were resuspended in 200 μL FACS buffer and fluorescence values were measured with a FACSArray (BD Biosciences). The amount of cell surface bound anti-HER3 antibody was assessed by measuring the mean channel fluorescence.
The ability of the identified antibodies to bind HER3 expressing cells was determined by calculating EC₅₀ values for their binding to the HER2 amplified cell line SK-Br-3 (see FIG. 2 and Table 4).

[16] = target: T11, HER3 K267A: CD33-[Human HER3, residues 20-640, K267A]-TAG (human, UniProt P21860 20-640); assay: SET, IgG vs mutant HER3
T11 construct: also called HER3 K267A-Tag; not shown: C-terminal TAG (e.g., FLAG TAG)

[17] = target: T12, HER3 K267A/L268A: CD33-[Human HER3, residues 20-640, K267A/L268A]-TAG (human, UniProt P21860 20-640); assay: SET
T12 construct: not shown: C-terminal TAG (e.g., FLAG TAG)

[18] = target: T13, HER3 L268A: CD33-[Human HER3, residues 20-640, L268A]-TAG (human, UniProt P21860 20-640); assay: SET
T13 construct: also called HER3 L268A-Tag; human mutant HER3 (L268A); not shown: C-terminal TAG (e.g., FLAG TAG)

[19] = target: T1, Hu HER3: CD33-[Human HER3, residues …; assay: SET, IgG vs HER3 ECD
Description: Affinity determination in solution was essentially performed as previously described (Friguet et al., (1985) J Immunol Methods 77:305-19). In order to improve the sensitivity and accuracy of the SET method, it was transferred from classical ELISA to ECL based technology (Haenel et al., (2005) Anal Biochem 339:182-84).
The data was evaluated with XLfit software (ID Business Solutions) applying customized fitting models.
Antibody affinity was determined by solution equilibrium titration (SET) as described above. The results are summarized in Table 3 and example titration curves for MOR12616 and MOR12925 are contained in FIG. 1.

T1 sequence (P21860 20-640): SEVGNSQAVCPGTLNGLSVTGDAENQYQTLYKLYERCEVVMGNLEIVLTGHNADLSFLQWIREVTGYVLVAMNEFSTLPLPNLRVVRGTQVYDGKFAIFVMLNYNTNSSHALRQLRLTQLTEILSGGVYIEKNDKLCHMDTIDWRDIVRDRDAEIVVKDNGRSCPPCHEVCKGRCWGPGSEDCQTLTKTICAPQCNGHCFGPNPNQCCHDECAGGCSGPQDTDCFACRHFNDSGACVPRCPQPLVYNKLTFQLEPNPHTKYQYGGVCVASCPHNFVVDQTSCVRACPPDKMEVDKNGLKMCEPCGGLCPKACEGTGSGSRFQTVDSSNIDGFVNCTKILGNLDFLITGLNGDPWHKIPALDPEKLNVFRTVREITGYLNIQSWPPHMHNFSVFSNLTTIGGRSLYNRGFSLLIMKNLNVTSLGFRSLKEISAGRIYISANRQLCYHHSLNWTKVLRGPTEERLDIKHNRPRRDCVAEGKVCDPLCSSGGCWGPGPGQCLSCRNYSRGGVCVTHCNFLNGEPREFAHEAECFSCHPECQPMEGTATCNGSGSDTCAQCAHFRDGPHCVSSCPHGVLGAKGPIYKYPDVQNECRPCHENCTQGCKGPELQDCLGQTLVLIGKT
T3 sequence (Q62799 20-643): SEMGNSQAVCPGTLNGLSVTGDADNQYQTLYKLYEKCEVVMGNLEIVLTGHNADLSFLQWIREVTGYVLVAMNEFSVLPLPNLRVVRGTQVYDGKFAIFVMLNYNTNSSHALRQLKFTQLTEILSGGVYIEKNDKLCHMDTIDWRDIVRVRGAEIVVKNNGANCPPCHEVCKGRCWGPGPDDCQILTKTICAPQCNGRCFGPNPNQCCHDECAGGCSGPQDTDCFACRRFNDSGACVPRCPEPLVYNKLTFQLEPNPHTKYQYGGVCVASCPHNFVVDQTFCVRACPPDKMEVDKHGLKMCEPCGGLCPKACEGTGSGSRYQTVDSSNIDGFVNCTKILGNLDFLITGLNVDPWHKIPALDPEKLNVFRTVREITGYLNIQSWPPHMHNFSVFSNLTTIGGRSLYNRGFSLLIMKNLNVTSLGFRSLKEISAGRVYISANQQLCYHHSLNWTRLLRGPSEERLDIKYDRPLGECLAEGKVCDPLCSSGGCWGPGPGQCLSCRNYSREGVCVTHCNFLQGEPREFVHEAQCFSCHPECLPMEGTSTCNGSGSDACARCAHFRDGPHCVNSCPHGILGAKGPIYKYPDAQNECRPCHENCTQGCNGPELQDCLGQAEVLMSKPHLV
T5 sequence (P21860 20-1342): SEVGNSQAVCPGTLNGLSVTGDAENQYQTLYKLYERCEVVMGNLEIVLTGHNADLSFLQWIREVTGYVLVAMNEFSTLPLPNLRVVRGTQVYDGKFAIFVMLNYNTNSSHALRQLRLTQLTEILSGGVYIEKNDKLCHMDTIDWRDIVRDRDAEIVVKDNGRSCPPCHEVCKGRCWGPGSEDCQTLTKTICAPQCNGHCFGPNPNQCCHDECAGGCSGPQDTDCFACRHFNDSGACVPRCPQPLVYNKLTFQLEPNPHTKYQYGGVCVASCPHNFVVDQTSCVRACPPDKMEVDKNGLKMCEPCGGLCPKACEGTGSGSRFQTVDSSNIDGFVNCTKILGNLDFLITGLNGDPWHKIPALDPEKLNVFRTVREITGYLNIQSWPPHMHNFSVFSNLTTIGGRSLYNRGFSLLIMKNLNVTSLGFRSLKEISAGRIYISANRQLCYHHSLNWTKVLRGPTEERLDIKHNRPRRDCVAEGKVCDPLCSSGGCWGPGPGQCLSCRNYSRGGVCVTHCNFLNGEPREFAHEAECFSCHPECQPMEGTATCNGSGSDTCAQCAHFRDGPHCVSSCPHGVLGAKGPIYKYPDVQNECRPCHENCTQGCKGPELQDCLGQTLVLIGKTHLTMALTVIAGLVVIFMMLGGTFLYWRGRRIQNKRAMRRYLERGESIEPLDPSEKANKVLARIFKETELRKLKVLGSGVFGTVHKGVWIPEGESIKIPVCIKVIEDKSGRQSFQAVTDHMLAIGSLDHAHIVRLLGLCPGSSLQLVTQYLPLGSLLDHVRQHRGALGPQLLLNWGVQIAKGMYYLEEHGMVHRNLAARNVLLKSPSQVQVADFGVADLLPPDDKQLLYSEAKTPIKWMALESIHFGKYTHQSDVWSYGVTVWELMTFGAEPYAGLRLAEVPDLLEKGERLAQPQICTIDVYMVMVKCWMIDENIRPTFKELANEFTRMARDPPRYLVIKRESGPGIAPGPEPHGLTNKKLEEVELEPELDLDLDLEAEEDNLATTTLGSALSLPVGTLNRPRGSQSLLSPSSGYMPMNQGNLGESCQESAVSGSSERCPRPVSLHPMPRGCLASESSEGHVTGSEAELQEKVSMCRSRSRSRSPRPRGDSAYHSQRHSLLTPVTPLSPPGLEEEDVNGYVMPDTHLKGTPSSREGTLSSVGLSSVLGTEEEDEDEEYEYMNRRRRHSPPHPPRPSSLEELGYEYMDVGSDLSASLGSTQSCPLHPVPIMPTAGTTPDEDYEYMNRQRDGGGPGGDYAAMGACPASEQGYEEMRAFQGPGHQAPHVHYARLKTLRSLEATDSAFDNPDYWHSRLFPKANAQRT
T2 sequence (G7PIG5 entry or part of it): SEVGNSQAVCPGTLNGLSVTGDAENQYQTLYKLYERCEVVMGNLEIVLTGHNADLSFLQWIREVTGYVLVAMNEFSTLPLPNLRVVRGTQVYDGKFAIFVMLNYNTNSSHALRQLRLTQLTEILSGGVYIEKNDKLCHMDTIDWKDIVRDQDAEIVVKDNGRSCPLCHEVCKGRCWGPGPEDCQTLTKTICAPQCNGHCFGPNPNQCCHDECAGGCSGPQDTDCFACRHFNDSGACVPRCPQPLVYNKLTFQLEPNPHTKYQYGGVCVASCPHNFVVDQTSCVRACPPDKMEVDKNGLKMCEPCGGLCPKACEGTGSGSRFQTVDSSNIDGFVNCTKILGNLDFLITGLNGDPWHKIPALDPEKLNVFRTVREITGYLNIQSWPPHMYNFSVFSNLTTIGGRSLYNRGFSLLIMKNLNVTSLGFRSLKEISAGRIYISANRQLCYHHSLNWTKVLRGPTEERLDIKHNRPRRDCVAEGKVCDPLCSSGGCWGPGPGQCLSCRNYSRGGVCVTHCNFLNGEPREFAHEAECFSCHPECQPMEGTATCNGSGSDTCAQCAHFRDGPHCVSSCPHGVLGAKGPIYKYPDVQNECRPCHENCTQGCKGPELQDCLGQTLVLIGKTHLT
T4 sequence (Q61526 20-643): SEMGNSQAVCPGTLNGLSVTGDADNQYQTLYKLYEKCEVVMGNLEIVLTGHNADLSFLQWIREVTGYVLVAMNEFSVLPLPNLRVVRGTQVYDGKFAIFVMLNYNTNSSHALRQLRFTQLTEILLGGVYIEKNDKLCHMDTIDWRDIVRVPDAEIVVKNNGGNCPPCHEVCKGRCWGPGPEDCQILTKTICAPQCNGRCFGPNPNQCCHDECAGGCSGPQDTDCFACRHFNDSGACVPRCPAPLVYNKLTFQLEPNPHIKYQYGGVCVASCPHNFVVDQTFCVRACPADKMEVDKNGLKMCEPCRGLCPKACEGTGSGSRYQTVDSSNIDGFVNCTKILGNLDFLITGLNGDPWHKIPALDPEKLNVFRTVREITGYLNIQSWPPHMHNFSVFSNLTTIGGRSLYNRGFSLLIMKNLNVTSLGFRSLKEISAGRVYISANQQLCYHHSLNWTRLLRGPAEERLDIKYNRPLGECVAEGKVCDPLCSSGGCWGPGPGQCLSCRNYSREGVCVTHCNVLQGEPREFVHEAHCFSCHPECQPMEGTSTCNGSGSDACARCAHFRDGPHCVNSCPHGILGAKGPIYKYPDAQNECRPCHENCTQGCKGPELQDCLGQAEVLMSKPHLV
T7 sequence (P21860 185-329): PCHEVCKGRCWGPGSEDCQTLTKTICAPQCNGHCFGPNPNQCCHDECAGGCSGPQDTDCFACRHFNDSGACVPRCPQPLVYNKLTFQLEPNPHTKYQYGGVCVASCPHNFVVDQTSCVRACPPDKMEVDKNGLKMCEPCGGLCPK
T6 sequence (P21860 330-643): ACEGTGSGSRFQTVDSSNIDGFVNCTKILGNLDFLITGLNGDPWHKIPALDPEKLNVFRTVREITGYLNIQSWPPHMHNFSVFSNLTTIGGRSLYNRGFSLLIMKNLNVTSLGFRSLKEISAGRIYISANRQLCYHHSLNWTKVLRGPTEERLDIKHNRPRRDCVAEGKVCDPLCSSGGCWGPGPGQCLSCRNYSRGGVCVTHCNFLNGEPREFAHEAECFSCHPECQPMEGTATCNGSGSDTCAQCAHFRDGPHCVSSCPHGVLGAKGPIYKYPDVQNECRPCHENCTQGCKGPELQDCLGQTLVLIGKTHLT
T8 sequence (P21860 496-643): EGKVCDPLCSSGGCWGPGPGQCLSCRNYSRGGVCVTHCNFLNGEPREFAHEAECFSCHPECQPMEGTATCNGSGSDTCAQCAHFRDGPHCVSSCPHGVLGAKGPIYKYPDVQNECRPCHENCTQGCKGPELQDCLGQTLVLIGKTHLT
T13 sequence (P21860 20-640 L268A): as the sequence (P21860 20-640) above, with L249A counted along it
T11 sequence (P21860 20-640 K267A): as the sequence (P21860 20-640) above, with K248A counted along it
T12 sequence (P21860 20-640 K267A/L268A): as the sequence (P21860 20-640) above, with K248A, L249A counted along it

Row | Binder | Kd [2] | Kd [3] | Kd [4] | Kd [5] | BT-474 pAkt (S473) % inhibition [6] | BT-474 pAkt (S473) IC50 [6] | MCF7 pAkt (S473) % inhibition [6] | MCF7 pAkt (S473) IC50 [6] | SK-Br-3 pAkt (S473) % inhibition [6] | SK-Br-3 pAkt (S473) IC50 [6] | BT474 pHER3 % inhibition [7] | BT474 pHER3 IC50 [7] | MCF7 pHER3 % inhibition [7] | MCF7 pHER3 IC50 [7] | SK-Br-3 pHER3 % inhibition [7] | SK-Br-3 pHER3 IC50 [7] | BT-474 proliferation % inhibition [11] | BT-474 proliferation IC50 [11] | SK-Br-3 proliferation % inhibition [11] | SK-Br-3 proliferation IC50 [11] | also measured
1 | B1 | 0.074 nM | 0.122 nM | 0.02 nM | 0.041 nM | 78% | 316 pM | 80% | 442 pM | 89% | 88 pM | 58% | 436 pM | 76% | 245 pM | 75% | 142 pM | 45% | 0.635 nM | 48% | 0.123 nM | EC50 (read off the curve) [1]: ~0.1 nM; binding result [8]: no binding (tested: 10 µg/ml); EC50 (read off the curve) [9]: ~0.2 µg/mL; binding result [10]: no binding (tested: 10 µg/ml); MCF7 proliferation % inhibition [11]: 32%; MCF7 proliferation IC50 [11]: 0.415 nM
2 | B2 | 0.074 nM | 0.1 nM | 0.028 nM | 0.038 nM | 80% | 255 pM | 82% | 295 pM | 88% | 93 pM | 63% | 2160 pM | 81% | 327 pM | 75% | 136 pM | 47% | 0.522 nM | 40% | 0.101 nM | EC50 (read off the curve) [1]: ~0.1 nM; binding result [12]: no binding (tested: 10 µg/ml); EC50 (read off the curve) [13]: ~0.1 µg/mL; binding result [14]: no binding (tested: 10 µg/ml); MCF7 proliferation % inhibition [11]: 47%; MCF7 proliferation IC50 [11]: 0.604 nM
3 | B3 | 0.044 nM | 0.064 nM | 0.072 nM | 0.029 nM |  |  |  |  |  |  |  |  | 83% | 379 pM | 76% | 239 pM |  |  | 56% | 0.181 nM | EC50 (HER3 on B16-F10 cells): 0.625 nM; EC50 (HER3 on JTC12 cells): 1.36 nM; EC50 [15]: 1.27 nM
4 | B4 | 0.215 nM | 0.315 nM | 0.235 nM | 0.125 nM |  |  |  |  |  |  |  |  | 73% | 533 pM | 76% | 231 pM |  |  | 66% | 0.271 nM | EC50 (HER3 on B16-F10 cells): 0.524 nM; EC50 (HER3 on JTC12 cells): 65.1 nM; EC50 [15]: 2.08 nM
5 | B5 |  |  | 0.037 nM |  | 81% | 466 pM | 73% | 347 pM | 94% | 105 pM | 70% | 437 pM | 75% | 412 pM | 81% | 139 pM | 43% | 1.21 nM | 43% | 0.198 nM | Kd [16]: 0.099 nM; binding result [17]: no binding; binding result [18]: no binding; Kd [19]: 0.037 nM; MCF7 proliferation % inhibition [11]: 58%
